One data set concerns the target U1A (Homo sapiens, UniProt P09012 P09012:2-282). The data set is described as follows: RNA microarray, signal at least 10-fold below U1A2/U1A. The conditions noted are these: tags: Cy3-labelled (NHS ester), label: 3' pCp-Cy5, hairpin. The protocol:
To a 1.5-mL tube, 120 ng of Cy5-RNA probe PoP_00001 Kt, 120 ng of Cy5-RNA probe PoP_00001, 00008, 00010, 00011, 00014, 00016, PoP_00018-28 and ultrapure water were mixed and controlled to have a volume of 18 μL. Hereinafter, the same operation as described in Section 8 above was performed. Binding of the RNA probe to a target spot was confirmed based on Cy5 signal.
Subsequently, to the gasket slide on the hybridization chamber, 70 μL of 40 nM Cy3-U1A was added and a microarray slide having RNA probes bound thereto was mounted and then a hybridization chamber was assembled. Incubation was performed at room temperature for 30 minutes. The hybridization chamber was made into pieces and the microarray slide was taken out, separated from the gasket in the TBSMT buffer, washed with TBSMT buffer at room temperature for 5 minutes, and further rinsed with TBSM buffer. Thereafter, the dried microarray slide was scanned.

For the next data set, the target named is L7Ae (UniProt O29494 O29494:1-119). The data set is described as follows: RNA microarray, no Cy3 signal. The conditions noted are these: tags: Cy3-labelled (NHS ester); label: 3' pCp-Cy5; hairpin. The protocol:
The mixture solution was incubated at 100° C. for 5 minutes and subsequently on ice for 5 minutes. On the lower frame of a hybridization chamber (Agilent), a gasket slide (Agilent) was mounted. In a single well of the gasket slide, the mixture solution (45 μL) was added and the well was covered with a DNA Barcode microarray slide and then a hybridization chamber was assembled. The hybridization chamber was set at a rotor (Agilent) of a hybridization oven of 55° C. Incubation was performed for 20 hours at a rotation rate of 20 per minute. The hybridization chamber was taken out from the oven and made into pieces. The microarray slide was taken out, separated from the gasket in Gene Expression Wash Buffer 1 (Agilent), washed with Gene Expression Wash Buffer 1 at room temperature for 5 minutes and further washed with Gene Expression Wash Buffer 2 (Agilent) at 37° C. for 5 minutes. The dried microarray slide was scanned by a microarray scanner (Agilent) in the mode of 8×15K, c scan, AglilentHD_miRNA, two color, XDR Hi and Lo (0.05). In this manner, binding of an RNA probe to a target spot was confirmed based on Cy5 signal.
Subsequently, to the gasket slide on the hybridization chamber, 70 μL of 5 nM Cy3-L7Ae (controlled in concentration with TBSMT buffer (Tris-HCl 20 mM, NaCl 300 mM, 5 mM MgCl₂, 0.1% Tween-20)) was added and then a microarray slide scanned was mounted. A hybridization chamber was assembled and incubation was performed at room temperature for 30 minutes. The hybridization chamber was made into pieces and the microarray slide was taken out, separated from the gasket in the TBSMT buffer, washed with TBSMT buffer at room temperature for 5 minutes, and further washed with TBSM buffer (Tris-HCl 20 mM, NaCl 300 mM, 5 mM MgCl₂) at room temperature for 5 minutes. The dried microarray slide was scanned again. […] In addition, Cy3 signal, which was 1.5 times as strong as that at PoP_00001_Kt, was detected at a spot of PoP_00024_hsa-let-7e. No Cy3 signal was detected at spots of other 10 probes.

Sequence of U1A (P09012 2-282, one chain of several): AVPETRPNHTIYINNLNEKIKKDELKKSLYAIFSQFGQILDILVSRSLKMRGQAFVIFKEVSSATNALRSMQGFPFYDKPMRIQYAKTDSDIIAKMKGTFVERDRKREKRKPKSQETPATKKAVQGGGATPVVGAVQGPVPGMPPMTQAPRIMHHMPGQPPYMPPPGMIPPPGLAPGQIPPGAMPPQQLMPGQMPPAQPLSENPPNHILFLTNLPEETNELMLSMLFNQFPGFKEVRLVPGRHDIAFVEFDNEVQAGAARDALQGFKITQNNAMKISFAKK
Sequence of L7Ae (O29494 whole entry, one chain of several): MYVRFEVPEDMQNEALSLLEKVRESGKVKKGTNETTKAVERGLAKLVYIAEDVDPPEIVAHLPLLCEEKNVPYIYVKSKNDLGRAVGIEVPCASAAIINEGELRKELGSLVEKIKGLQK

B1: PoP_00011_dU1A2 (ssRNA)
RNA: GAGACGAGGCCCUAGAUCAUGCAUCCGUUUGGGAAUAUAGUGCCGAGUCCUUCGGGACAUUACGGCGGCGCUAUAUUCCCGGA
Turning to B1, the binding result in the data set with U1A is “no binding”.

B2: PoP_00019_hsa-let-7a-2 loop (ssRNA)
RNA: GACACGGUAGGGAAACCCACCAACUAGGUGUACGAAGUUUCAGCAUAGUUUAGAAUUACAUCAAGGGAGAUAACUGUGCUGAAGCUUCGUGCAC
Regarding B2, the binding result with L7Ae and with U1A was “no binding” each time.

B3: PoP_00027_hsa-let-7g loop (ssRNA)
RNA: GCACAAGGAGUAAGGCGCAUGUACCCGGUGUACGAAGUUUCAGCACAGUUUGAGGGUCUAUGAUACCACCCGGUACAGGAGAUAACUGUGCUGAAGCUUCGUGCAC
Turning to B3, the binding result in the data set with L7Ae and in the data set with U1A was “no binding” in each case.

B4: PoP_00018_hsa-let-7a-1 loop (ssRNA)
RNA: GGUGACGGGCAAAUCACUAACCACCCGGUGUACGAAGUUUCAGCAUAGUUUUAGGGUCACACCCACCACUGGGAGAUAACUAUGCUGAAGCUUCGUGCAC
On to B4, for which the binding result with L7Ae and with U1A was “no binding” throughout.

B5: PoP_00021_hsa-let-7b loop (ssRNA)
RNA: GAACCGGCUACGCUAAACUUAGAACCGGUGUACGAAGUUUCAGCGUGGUUUCAGGGCAGUGAUGUUGCCCCUCGGAAGAUAACUAUGCUGAAGCUUCGUGCAC
As for B5, the binding result with L7Ae and with U1A was “no binding” throughout.

B6: PoP_00026_hsa-let-7f-2 loop (ssRNA)
RNA: GCCUUGAUGGCCGUCAGUUCGGUUAAGGUGUACGAAGUUUCAGCAUAGUUUUAGGGUCAUACCCCAUCUUGGAGAUAACUAUGCUGAAGCUUCGUGCAC
As to B6, the binding result in the data set with L7Ae and with U1A was “no binding” each time.

B7: PoP_00028_hsa-let-7i loop (ssRNA)
RNA: GAUAUGACCGCCGGCUUAGAAUAGAAGGUGUACGAAGUUUCAGCGCUGUUGGUCGGGUUGUGACAUUGCCCGCUGUGGAGAUAACUGCGCUGAAGCUUCGUGCAC
For the molecule B7, the binding result with L7Ae and with U1A was “no binding” each time.

B8: PoP_00020_hsa-let-7a-3 loop (ssRNA)
RNA: GAGAGAGGAUUCUCACUUACUGUACCGGUGUACGAAGUUUCAGCAUAGUUUGGGGCUCUGCCCUGCUAUGGGAUAACUAUGCUGAAGCUUCGUGCAC
For B8, the binding result in the data set with L7Ae and in the data set with U1A was “no binding” throughout.

B9: PoP_00025_hsa-let-7f-1 loop (ssRNA)
RNA: GUAAUCGAGGCGUAAGGCACAACAUAGGUGUACGAAGUUUCAGCAUAGUUGUGGGGUAGUGAUUUUACCCUGUUCAGGAGAUAACUAUGCUGAAGCUUCGUGCAC
For the molecule B9, the binding result with L7Ae and in the data set with U1A was “no binding” in each case.

B10: PoP_00022_hsa-let-7c loop (ssRNA)
RNA: GAACUGGCAAUCGCACCCACCUAAAGGGUGUACGAAGUUUCAGCGGUUUAGAGUUACACCCUGGGAGUUAACUGCUGAAGCUUCGUGCAC
As to B10, the binding result with L7Ae and with U1A was “no binding” throughout.

B11: PoP_00001_Kt (ssRNA)
RNA: GUAUAAGCGGGAGAUUCGUCCUCAUAGGUGUACGAAGUUUCAGCUGACCCGAAAGGGCGUGAUGCUGAAGCUUCGUGCAC
Consider B11, for which the binding result with U1A (Kt kink-turn loop) is listed as “no binding”.

B12: PoP_00016_dU1A (ssRNA)
RNA: GGGGUAUAUCCUCACACUUCCCGGGCGUUUGGGAAUAUAGUGCCAUUACGGUCCGGCGCUAUAUUCCCGGA
With B12, the binding result in the data set with U1A is “no binding”.

B13: PoP_00008_dKt (ssRNA)
RNA: GGAUUCCACUCAAGCUUCACGGGAUAGUUUGGGAAUAUAGUGCCUGCCCGAAAGGGCGUCAUGGCGCUAUAUUCCCGGA
Regarding B13, in the data set with U1A, the binding result is “no binding”.

The record behind these values is US20170022545, “RNA MICROARRAY FOR DETECTING INTERACTION BETWEEN PROTEIN AND RNA CONTAINING A HIGHER-ORDER STRUCTURE” (KYOTO UNIVERSITY, published 2017).
